# Target: soluble C-terminally truncated HAP2 ectodomain (HAP2e), residues 23-592, Chlamydomonas reinhardtii (Chlamydomonas reinhardtii) (UniProt A4GRC6)
# Test: SEC-MALS
substance,measurement,value
"soluble C-terminally truncated HAP2 ectodomain (HAP2e), residues 23-592, Chlamydomonas reinhardtii (from UniProt A4GRC6 23-592) (domain or fragment)",stoichiometry N,6

# Source: article PMC5332557
